Reference: article PMC3561853 (Journal of Cell Science, 2012)
Where a SMILES comes first, the peptide text is derived from it. Where no end group is shown, it is not given here. [ ]: non-standard residue; d: D form. pY = N[C@@H](Cc1ccc(OP(=O)(O)O)cc1)C(=O)O

B1: SH3A-SH2-SH3B fragment of Vav1 (596-845) (domain or fragment, mouse, UniProt P27870 596-845, looked up)
chain: KMEVFQEYYGIPPPPGAFGPFLRLNPGDIVELTKAEAEHNWWEGRNTATNEVGWFPCNRVHPYVHGPPQDLSVHLWYAGPMERAGAEGILTNRSDGTYLVRQRVKDTAEFAISIKYNVEVKHIKIMTSEGLYRITEKKAFRGLLELVEFYQQNSLKDCFKSLDTTLQFPYKEPERRAISKPPAGSTKYFGTAKARYDFCARDRSELSLKEGDIIKILNKKGQQGWWRGEIYGRIGWFPSNYVEEDYSEYC
B2: SH2 domain of Vav1 (669-771) (domain or fragment, mouse, UniProt P27870 669-771, looked up)
chain: HLWYAGPMERAGAEGILTNRSDGTYLVRQRVKDTAEFAISIKYNVEVKHIKIMTSEGLYRITEKKAFRGLLELVEFYQQNSLKDCFKSLDTTLQFPYKEPERR
B3: SH2-SH3B fragment of Vav1 (669-845) (domain or fragment, mouse, UniProt P27870 669-845, looked up)
chain: HLWYAGPMERAGAEGILTNRSDGTYLVRQRVKDTAEFAISIKYNVEVKHIKIMTSEGLYRITEKKAFRGLLELVEFYQQNSLKDCFKSLDTTLQFPYKEPERRAISKPPAGSTKYFGTAKARYDFCARDRSELSLKEGDIIKILNKKGQQGWWRGEIYGRIGWFPSNYVEEDYSEYC

Key:
[1] = biological target: T1, SH3A-SH2 fragment of Vav1 (596–771) (Mus musculus, UniProt P27870); assay: Isothermal titration calorimetry; format: binding
T1 sequence (P27870 596-771): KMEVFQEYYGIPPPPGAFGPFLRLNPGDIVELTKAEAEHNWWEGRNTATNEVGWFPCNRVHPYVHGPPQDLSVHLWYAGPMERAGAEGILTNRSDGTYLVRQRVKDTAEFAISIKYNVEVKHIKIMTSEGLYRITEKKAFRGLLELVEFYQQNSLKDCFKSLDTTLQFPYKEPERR

[2] = biological target: T2, SH2-SH3B fragment of Vav1 (669–845) (Mus musculus, UniProt P27870); assay: Isothermal titration calorimetry; format: binding
T2 sequence (P27870 669-845): B3 chain

[3] = biological target: B2; assay: ITC
[4] = biological target: B1; assay: ITC
[5] = biological target: B3; assay: ITC
[6] = biological target: SLP76 2pY peptide (pY112 and pY128) (mouse, phosphotyrosine at Y112 and at Y128 (EDDp…pYESPNE)); assay: ITC
[7] = biological target: T3, SH3A-SH2 fragment of Vav1 (596-771) (mouse, UniProt P27870 596-771); assay: ITC
T3 sequence (looked up): T1 sequence (P27870 596-771)

NC(=O)C[C@H](NC(=O)[C@@H]1CCCN1C(=O)[C@H](CO)NC(=O)[C@H](CCC(=O)O)NC(=O)[C@H](Cc1ccc(OP(=O)(O)O)cc1)NC(=O)[C@H](CC(=O)O)NC(=O)[C@H](CC(=O)O)NC(=O)[C@@H](N)CCC(=O)O)C(=O)N[C@@H](CC(=O)O)C(=O)O [pY112] (HELM PEPTIDE1{E.D.D.[O=C([C@H](Cc1ccc(OP(=O)(O)O)cc1)N[*:1])[*:2]].E.S.P.N.D}$$$$V2.0)
Kd [1]: 1060 nM

NC(=O)C[C@H](NC(=O)[C@@H]1CCCN1C(=O)[C@H](CO)NC(=O)[C@H](CCC(=O)O)NC(=O)[C@H](Cc1ccc(OP(=O)(O)O)cc1)NC(=O)[C@H](CC(=O)O)NC(=O)CNC(=O)[C@@H](N)CC(=O)O)C(=O)N[C@@H](CCC(=O)O)C(=O)O [pY128] (HELM PEPTIDE1{D.G.D.[O=C([C@H](Cc1ccc(OP(=O)(O)O)cc1)N[*:1])[*:2]].E.S.P.N.E}$$$$V2.0)
Kd [2]: 1060 nM

EDD[pY]ESPND [SLP76 pY112 peptide]
Kd [3]: 1640 nM | Kd [4]: 1850 nM | Kd [5]: 1320 nM

B1
stoichiometry N [6]: 2

B2
stoichiometry N [6]: 2 SH2 domain:peptide

B3
stoichiometry N [6]: 2

DGD[pY]ESPNE [SLP76 pY128 peptide]
Kd [4]: 1350 nM | Kd [7]: 1040 nM
